Results as given in the supplement of paper PMC6757056.
± gives the standard deviation of the averaged measurements.

B1: library; a variant is named by its letters at N, in order (parent)
chain: GCUGUCACCGGUGUAUUACCCUAGUGGUCGACCGGUCUGAUGAGUCUNNNNNNAGACGAAACAGC

Key:
hypoxanthine [1] = variants of: B1; test: FACS-Seq fitted mean relative fluorescence mCherry/BFP without ligand (log10 relative fluorescence); ligand: hypoxanthine (xanthine aptamer); higher = higher reporter protein expression; details: HEK293T, ligand present: no
Procedure, shortened: (§1)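 The ribozyme switch sat in an mCherry reporter, delivered by lentivirus into HEK293T libraries along with an EF1α-BFP marker. Enriched cells were incubated 48 h with or without ligand, sorted into 6 bins by mCherry/BFP, and bin genomic DNA was PCR-amplified, barcoded and MiSeq-sequenced. Fluorescence equals the fitted normal mean of the bin counts after normalization. Those log10(mCherry/BFP) means were scaled to five spiked-in control ribozymes.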

hypoxanthine [2] = variants of: B1; test: normalized RNA/DNA level with ligand (relative to sTRSVctl = 100) (log10 (% of sTRSVctl)); ligand: hypoxanthine (xanthine aptamer); higher = less ribozyme self-cleavage, higher mRNA level; details: ligand concentration (+) RNA-Seq: 5 mM, HEK293T, reporter: mCherry (pCS4076), ligand present: yes
Procedure, shortened: (§2)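 Only sequences with at least 100 DNA reads were analyzed, from HEK293T cells transfected with 4 µg per 6-well well of ribozyme switch library plasmids 72 h before RNA extraction with EDTA. Any ligand was added 1 h before transfection. RNA level was defined as RNA over DNA reads, normalized to a spiked-in non-cleaving sequence or to the top sequences, then scaled and log-transformed. The top set was 25 sequences, and the scaling was ×100 followed by log10.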

hypoxanthine [3] = variants of: B1; test: normalized RNA/DNA level without ligand (relative to sTRSVctl = 100) (log10 (% of sTRSVctl)); ligand: hypoxanthine (xanthine aptamer); higher = less ribozyme self-cleavage, higher mRNA level; details: HEK293T, reporter: mCherry (pCS4076), ligand present: no
Procedure, shortened: as §2

hypoxanthine [4] = variants of: B1; test: FACS-Seq fitted mean relative fluorescence mCherry/BFP with ligand (log10 relative fluorescence); ligand: hypoxanthine (xanthine aptamer); ligand concentration (+) FACS-Seq: 5 mM; higher = higher reporter protein expression; details: HEK293T, ligand present: yes
Procedure, shortened: as §1

Variant	FACS-Seq fitted mean (log10) (hypoxanthine [1])	normalized RNA/DNA level with ligand (log10) (hypoxanthine [2])	normalized RNA/DNA level without ligand (log10) (hypoxanthine [3])	FACS-Seq fitted mean (log10) (hypoxanthine [4])
UUGACA	0.459 ± 0.015	1.95 ± 0.046	1.87 ± 0.026	0.491 ± 0.048
CUGACC	0.127 ± 0.042	1.99 ± 0.037	1.91 ± 0.026	0.416 ± 0.008
AUGACG	0.0397 ± 0.012	1.807 ± 0.0069	1.354 ± 0.011	0.3727 ± 0.0035
GUGACG	0.259 ± 0.081	1.828 ± 0.0026	1.37 ± 0.044	0.523 ± 0.031
UUGACG	0.486 ± 0.025	1.93 ± 0.057	1.831 ± 0.0085	0.5104 ± 0.00062
GUGACU	-0.666 ± 0.018	1.92 ± 0.02	1.88 ± 0.049	-0.229 ± 0.049
AUGAGA	0.392 ± 0.088	1.85 ± 0.062	1.451 ± 0.0036	0.697 ± 0.0095
CUGAGA	0.665 ± 0.033	1.93 ± 0.036	1.77 ± 0.058	0.753 ± 0.0013
GUGAGA	-0.285 ± 0.036	1.86 ± 0.025	1.5664 ± 0.0011	-0.146 ± 0.2
UUGAGA	0.452 ± 0.082	1.96 ± 0.015	1.53 ± 0.067	0.649 ± 0.057
GUGAGC	0.0785 ± 0.015	1.731 ± 0.017	1.15 ± 0.016	0.6585 ± 0.0046
UUGAGC	0.0741 ± 0.098	1.977 ± 0.003	1.89 ± 0.025	0.129 ± 0.018
AUGAGG	-0.0108 ± 0.028	1.644 ± 0.0044	1.15 ± 0.056	0.252 ± 0.059
CUGAGG	0.424 ± 0.071	1.91 ± 0.03	1.58 ± 0.025	0.466 ± 0.031
GUGAGG	0.174 ± 0.029	1.7 ± 0.039	1.2 ± 0.026	0.598 ± 0.051
UUGAGG	0.402 ± 0.054	1.98 ± 0.027	1.7199 ± 0.00097	0.578 ± 0.02
AUGAUA	-0.373 ± 0.027	1.9 ± 0.036	1.736 ± 0.013	-0.00691 ± 0.00025
CUGAUA	0.486 ± 0.026	1.877 ± 0.003	1.7 ± 0.055	0.601 ± 0.13
UUGAUA	0.161 ± 0.022	1.93 ± 0.047	1.806 ± 0.01	0.277 ± 0.015
AUGAUG	-0.144 ± 0.025	1.794 ± 0.0069	1.32 ± 0.027	0.458 ± 0.12
GUGAUG	0.204 ± 0.049	1.81 ± 0.038	1.34 ± 0.019	0.686 ± 0.037
AUGCAA	0.192 ± 0.045	1.87 ± 0.022	1.72 ± 0.038	0.221 ± 0.068
GUGCAA	0.274 ± 0.033	1.904 ± 0.0021	1.69 ± 0.037	0.57 ± 0.059
GUGCAC	0.5159 ± 0.0044	1.87 ± 0.046	1.672 ± 0.0021	0.536 ± 0.016

Variant	FACS-Seq fitted mean (log10) (hypoxanthine [1])	normalized RNA/DNA level with ligand (log10) (hypoxanthine [2])	normalized RNA/DNA level without ligand (log10) (hypoxanthine [3])	FACS-Seq fitted mean (log10) (hypoxanthine [4])
AUGCAG	0.251 ± 0.022	1.756 ± 0.01	1.29 ± 0.019	0.682 ± 0.039
CUGCAG	0.429 ± 0.068	1.96 ± 0.02	1.73 ± 0.066	0.677 ± 0.016
GUGCAG	0.0446 ± 0.026	1.739 ± 0.0069	1.3 ± 0.099	0.427 ± 0.039
GUGCAU	-0.413 ± 0.2	1.91 ± 0.038	1.74 ± 0.018	-0.852 ± 0.077
AUGCCA	0.0727 ± 0.02	1.91 ± 0.07	1.821 ± 0.018	0.158 ± 0.03
GUGCCG	0.6409 ± 0.0059	1.912 ± 0.0077	1.55 ± 0.025	0.557 ± 0.12
UUGCCG	0.171 ± 0.068	1.98 ± 0.039	1.83 ± 0.038	0.358 ± 0.006
AUGCGA	0.0429 ± 0.015	1.89 ± 0.076	1.556 ± 0.0057	0.395 ± 0.06
CUGCGA	-0.182 ± 0.027	1.98 ± 0.052	1.822 ± 0.01	-0.114 ± 0.022
CUGCGC	0.135 ± 0.0047	2 ± 0.033	1.92 ± 0.08	0.18 ± 0.029
AUGCGG	-0.0506 ± 0.036	1.752 ± 0.0084	1.31 ± 0.12	0.504 ± 0.014
GUGCGG	0.103 ± 0.016	1.88 ± 0.033	1.38 ± 0.081	0.585 ± 0.033
UUGCGG	-0.08 ± 0.07	1.99 ± 0.062	1.91 ± 0.044	-0.606 ± 0.083
GUGCGU	0.221 ± 0.019	1.972 ± 0.018	1.71 ± 0.044	0.479 ± 0.04
AUGCUA	0.499 ± 0.086	1.966 ± 0.0068	1.788 ± 0.0045	0.706 ± 0.029
GUGCUG	0.44 ± 0.068	1.914 ± 0.019	1.58 ± 0.025	0.542 ± 0.054
UUGCUU	0.227 ± 0.004	1.98 ± 0.042	1.94 ± 0.044	0.0746 ± 0.042
AUGGAA	0.751 ± 0.027	1.88 ± 0.044	1.65 ± 0.043	0.749 ± 0.042
GUGGAA	0.0876 ± 0.0021	1.88 ± 0.031	1.61 ± 0.0033	-0.0768 ± 0.16
AUGGAC	0.677 ± 0.01	1.8884 ± 0.00037	1.68 ± 0.028	0.843 ± 0.058
AUGGAG	0.0698 ± 0.0056	1.71 ± 0.037	1.208 ± 0.011	0.604 ± 0.023
GUGGAU	0.3032 ± 0.0022	1.917 ± 0.019	1.74 ± 0.05	0.467 ± 0.024
AUGGCG	0.211 ± 0.015	1.894 ± 0.018	1.38 ± 0.075	0.691 ± 0.042
GUGGCG	0.283 ± 0.0056	1.94 ± 0.02	1.608 ± 0.011	0.342 ± 0.023

Variant	FACS-Seq fitted mean (log10) (hypoxanthine [1])	normalized RNA/DNA level with ligand (log10) (hypoxanthine [2])	normalized RNA/DNA level without ligand (log10) (hypoxanthine [3])	FACS-Seq fitted mean (log10) (hypoxanthine [4])
UUGGCG	0.088 ± 0.024	2.01 ± 0.034	1.87 ± 0.037	0.648 ± 0.069
AUGGGA	0.29 ± 0.013	1.89 ± 0.043	1.56 ± 0.08	0.592 ± 0.042
GUGGGA	-0.0656 ± 0.016	1.9229 ± 0.0017	1.68 ± 0.053	0.178 ± 0.067
CUGGGG	0.345 ± 0.011	1.86 ± 0.05	1.479 ± 0.0059	0.484 ± 0.061
GUGGGG	0.0309 ± 0.01	1.841 ± 0.016	1.45 ± 0.029	0.399 ± 0.07
GUGGGU	0.152 ± 0.061	1.94 ± 0.021	1.79 ± 0.018	0.626 ± 0.031
AUGGUA	0.303 ± 0.033	1.86 ± 0.045	1.73 ± 0.048	0.304 ± 0.016
GUGGUA	0.478 ± 0.079	1.95 ± 0.026	1.759 ± 0.016	0.585 ± 0.082
AUGGUC	0.812 ± 0.048	2 ± 0.036	1.92 ± 0.033	0.6851 ± 0.0041
AUGGUG	-0.243 ± 0.17	1.79 ± 0.062	1.331 ± 0.0014	0.0458 ± 0.031
GUGGUG	0.0578 ± 0.012	1.83 ± 0.047	1.33 ± 0.043	0.546 ± 0.02
AUGUAA	0.323 ± 0.0041	1.93 ± 0.036	1.68 ± 0.0086	0.279 ± 0.019
GUGUAA	0.291 ± 0.061	1.85 ± 0.024	1.67 ± 0.049	0.495 ± 0.043
AUGUAC	0.103 ± 0.13	1.893 ± 0.017	1.7 ± 0.026	0.149 ± 0.054
AUGUAG	-0.0834 ± 0.023	1.768 ± 0.0076	1.27 ± 0.1	0.176 ± 0.087
GUGUAG	0.19 ± 0.04	1.76 ± 0.022	1.17 ± 0.065	0.6252 ± 0.0039
AUGUAU	-0.142 ± 0.082	1.925 ± 0.0046	1.73 ± 0.021	0.156 ± 0.0021
CUGUAU	0.503 ± 0.018	1.899 ± 0.013	1.82 ± 0.043	0.384 ± 0.08
GUGUAU	0.314 ± 0.018	1.91 ± 0.056	1.737 ± 0.017	0.33 ± 0.021
UUGUAU	-0.614 ± 0.05	1.94 ± 0.077	1.93 ± 0.026	-0.338 ± 0.072
CUGUCA	0.49 ± 0.048	2 ± 0.058	1.86 ± 0.037	0.439 ± 0.09
GUGUCG	0.585 ± 0.017	1.86 ± 0.034	1.604 ± 0.0026	0.628 ± 0.037
AUGUCU	0.305 ± 0.037	1.957 ± 0.019	1.85 ± 0.046	0.0818 ± 0.041
